Measured values reported in US20050171008A1, “Monomeric insulin” (priority 2002, published 2005).

Legend:
[1] = target: Lyspro (B28Lys, B29Pro insulin) (UniProt P01308); experiment: self-association by size exclusion chromatography, Superdex 75, PBS pH 7.4, 80 umol/l protein
[2] = Determination of self-association property by size exclusion chromatography (Superdex 75); assay type: physicochemical
Protocol: The molecular homogeneity was measured by Symmetry factor Fs. Fs=W0.05h/2A, wherein, W0.05 is the band width at 0.05 peak height and A is the width of the first half peak at 0.05 peak height. The change of average molecular weight was measured by plotting the distribution coefficient Kav vs. protein concentration. Kav=(Vr−V0)/(Vc−Vo), wherein Vr is the retention volume, Vo the void volume and Vc the total bed volume.

Lyspro (B28Lys, B29Pro insulin) (from UniProt P01308 25-110; P01308 25-110)
Kav [1]: 0.48

zinc free insulin: zinc free porcine insulin used as control in size exclusion chromatography
retention time on Superdex 75 column versus protein concentration ([2]; PBS pH7.4, 40-600 μmol/L): decreased with increasing concentration | Kav value versus protein concentration ([2]; PBS pH7.4, increasing concentration): decreased with increasing concentration | Fs value (symmetry factor, peak shape) versus protein concentration ([2]; PBS pH7.4, insulin: at concentrations above 400 umol/L): increased markedly
